Measured values reported in the supplement of paper PMC7125110.
± gives the standard error. For some assays here: This sample holds only a part of the variants without activity.

B1: glmS ribozyme (parent)
chain: AUAAAAGCGCCAGAACUACAGAAAUGUAGUUGACGAGGAGGAGGUUUAUCGAAUUUUCGGCGGAUGCCUCCAAA

Columns and labels:
Conditions in all cases: with glucosamine-6-phosphate
glucosamine-6-phosphate [1] = variants of: B1; assay: kcat; higher = faster cleavage; RNA array
In short: (§1)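 Barcoded ribozyme variants, transcribed in situ by E. coli RNA polymerase on sequenced MiSeq chips, were followed via a hybridised Cy3 probe at 37 °C. Glucosamine-6-phosphate ranged from 40 μM to 10 mM in HEPES/KCl/Mg(OAc)2 buffer. kobs came from decay fits to per-tile medians, and kcat and KM from weighted Michaelis–Menten fits.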

glucosamine-6-phosphate [2] = variants of: B1; assay: KM; higher = weaker cofactor use; RNA array
In short: as §1

glucosamine-6-phosphate [3] = variants of: B1; assay: self-cleavage kobs at 40 uM GlcN6P; higher = faster cleavage; RNA array
In short: as §1

glucosamine-6-phosphate [4] = variants of: B1; assay: self-cleavage kobs at 160 uM GlcN6P; higher = faster cleavage; RNA array
In short: as §1

glucosamine-6-phosphate [5] = variants of: B1; assay: self-cleavage kobs at 640 uM GlcN6P; higher = faster cleavage; RNA array
In short: as §1

glucosamine-6-phosphate [6] = variants of: B1; assay: self-cleavage kobs at 2500 uM GlcN6P; higher = faster cleavage; RNA array
In short: as §1

glucosamine-6-phosphate [7] = variants of: B1; assay: self-cleavage kobs at 10000 uM GlcN6P; higher = faster cleavage; RNA array
In short: as §1

Variant	kcat (glucosamine-6-phosphate [1])	KM (glucosamine-6-phosphate [2])	self-cleavage kobs at 40 uM GlcN6P (glucosamine-6-phosphate [3])	self-cleavage kobs at 160 uM GlcN6P (glucosamine-6-phosphate [4])	self-cleavage kobs at 640 uM GlcN6P (glucosamine-6-phosphate [5])	self-cleavage kobs at 2500 uM GlcN6P (glucosamine-6-phosphate [6])	self-cleavage kobs at 10000 uM GlcN6P (glucosamine-6-phosphate [7])
AUAAAAGCGCUAGAACUACAGAAAUGUAGUUGACGAGGAGGAGGUUUAUCGAAUUUUCGGCGGAUGGCUCCAAA [C11U C67G]	0.000216 ± 2.7e-05 s⁻¹	633 ± 220 µM	2.61e-05 ± 1.2e-05 s⁻¹	4.28e-05 ± 9.2e-06 s⁻¹	0.000102 ± 1e-05 s⁻¹	0.000218 ± 2.2e-05 s⁻¹	0.000189 ± 1.7e-05 s⁻¹
AUAAAAGCGCUAGAAAUACAGAAAUGUAGUUGACGAGGAGGAGGUUUAUCGAAUUUUCGGCGGAUGCCUCCAAA [C11U C16A]	0.000174 ± 7e-06 s⁻¹	1760 ± 190 µM			4.38e-05 ± 1.9e-05 s⁻¹	0.000106 ± 2.2e-05 s⁻¹	0.000145 ± 2.9e-05 s⁻¹
AUAAAAGCGCUAGAAGUACAGAAAUGUAGUUGACGAGGAGGAGGUUUAUCGAAUUUUCGGCGGAUGCCUCCAAA [C11U C16G]	0.000546 ± 4.2e-05 s⁻¹	2850 ± 410 µM			0.000104 ± 1.9e-05 s⁻¹	0.000258 ± 4.8e-05 s⁻¹	0.000423 ± 5.7e-05 s⁻¹
AUAAAAGCGCUAGAACUACAGAAAUGUAGUUGACGAGGAGGAGGUUUAUCGAAUUUUCGGCGGAUGCCUACAAA [C11U C70A]	5.41e-05 ± 1e-05 s⁻¹				8.46e-05 ± 1.3e-05 s⁻¹	5.81e-05 ± 9.9e-06 s⁻¹	4.63e-05 ± 6.2e-06 s⁻¹
AUAAAAGCGCUAGAACUACAGAAAUGUAGUUGACGAGGAGGAGGUUUAUGGAAUUUUAGGCGGAUGCCUCCAAA [C11U C50G C58A]	0.000158 ± 1.6e-05 s⁻¹		0.000112 ± 3.6e-05 s⁻¹	0.00015 ± 1.7e-05 s⁻¹	0.000189 ± 3e-05 s⁻¹	0.000242 ± 0.00011 s⁻¹	0.000135 ± 2.2e-05 s⁻¹
AUAAAAGCGCUAGAACUACAGAAAUGUAGUUGACGAGGAGGAGGUUUAUCGAAUUUUCGGCGGAUGCAUCGAAA [C11U C68A C71G]	5.97e-05 ± 2.3e-05 s⁻¹				0.000101 ± 2.3e-05 s⁻¹		
AUAAAAGCGCUAGAACUACAGAAAUGUAUUUGACGAGGAGGAGGUUUAUCGAAUUUUCGGCGGAUGCCUCCAAA [C11U G29U]	0.000681 ± 0.00029 s⁻¹			5.37e-05 ± 1.3e-05 s⁻¹	7.49e-05 ± 1.3e-05 s⁻¹	0.000407 ± 6.3e-05 s⁻¹	0.000463 ± 6.1e-05 s⁻¹
AUAAAAGCGCUACAACUACAGAAAUGUAGUUGACGAGGAGGAGGUUUAUCGUAUUUUCGGCGGAUGCCUUCAAA [C11U G13C A52U C70U]	1.58e-05 ± 5.8e-06 s⁻¹		< 1e-05 s⁻¹				< 1e-05 s⁻¹
AUAAAAGCGCUAUAACUACAGAAAUGUAGUUGACGAGGAGGAGGUUUAUCGAAUUUUCGGCGGAUGCCUCCAAA [C11U G13U]	6.21e-05 ± 5.4e-06 s⁻¹	1020 ± 420 µM				4.88e-05 ± 9.5e-06 s⁻¹	5.47e-05 ± 8.2e-06 s⁻¹
